Measured values taken from the supplement of paper PMC12636428.

Tested on: Saccharomyces cerevisiae
Test: transcriptional activation domain activity (GFP:mCherry ratio, weighted mean of sorted bins, harmonized to initial dataset scale) (arbitrary fluorescence ratio units); higher = stronger transcriptional activation
Settings: beta-estradiol 1 µM; induction time 4 h
Description: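 53-aa protein tiles (fungal proteins plus yeast TF control tiles) fused C-terminally to a DBD-estrogen-binding domain-mCherry synthetic TF, integrated in S. cerevisiae (URA3 locus) with a GFP reporter. Cells were induced with 1 uM beta-estradiol for 4 h at 30 C, FACS-sorted into 8 bins by GFP:mCherry ratio and barcodes sequenced. Activity is the read-weighted mean bin fluorescence (GFP:mCherry), averaged over barcodes (median 12); tiles under 50 reads were discarded. New active-learning values were harmonized by linear fit onto the scale of the initial (Hummel et al.) dataset. The assay saturates at low and high signal.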

Sequence | transcriptional activation domain activity
YKTTMARLIYLMDDKFKLFDHLRALKKYLLLGQGDFIALLMESLASNLDRPAN | 55100
RPYLLLLHLLCSFFFFESISIILAIAFQLLLIRASSHMIIRMLLQVYCFLSMR | 75900
MFSHFNSSDLTSTFFFFMPVLGFILCPFFLLESMVCALVGWPCFLLSYCLPCL | 68900
QLLLVHEGCVMDRLAIAGFEGAALARALWFASFLKGVVRQDRIMEGMYYLLAP | 26300
EETKEDESSSSPADKENEKPKANTSAKQAKPRGEKKEGAASKGKGGRKQANGT | 33200
MGGCICLRWSCVNVFFSFVYSFGLACCFTSWEYGGVYLGEGGCFLFYLSFFFL | 50500
ASSTAAASAASSAAAAKGGNNNAGKGAAAAKGGAAAAKGGAAAGGAAAAKGGA | 24400
PSPPKCQVPTLYAVIFRILAYLRLLDAFLFHVYILLTLHELWLIIWIPHHHQS | 41400
GEGESADERRRRRHKRKRDGSDEEDEEERGRKRSRRSKGSDDDRSGDDDEDDE | 25600
LQLYLSSHHREMLVDIWDRLWPWMVFFHVNRGCIADPFMLRPHPCFNLLHFIV | 65600
MVPFSAFSFSLVKKFHWSAAFGGSFFLHLFFTNLNAWVFLFYLLLYVFVYQGL | 40600
WVLNVHLCLFYLAAFGDSAFNVISAIRKLSELPFSYSLYLFAWLFISWDLLFV | 70500
SNGKEMAFQYYSFVKEWGHVLGRYPGEIERCLIGTLGNIFFSGVKPIANSYFL | 45400
MASSTPRVRSLYRRLLRELPTHPSATPNTTTAASRTTPSKYRSTAHQKLSAPS | 31700
MEWHLLGSCLAGLVWGVFYIFFFFAACLIGFFPYHYHYLLLLLVLLTTNILFV | 49500
PPPPPPPPPPAGRGGGAPPPHAISGGAPPPPPTPPPPPPPPPPPGVVPVPPPP | 41600
NMDQLDSVHNLNDDDLQQLLEDLGNIDHSDEKLWKEITDQAMWLGNTMDPTAA | 149000
VIRGLEELVYLDIRLPFQVEFLNMNPLLLGPACILRSMTLVILSSDGCFPTSR | 54000
VKKHYKLYYLDPGRTREFIAVSWFEVDILLVRWCSTTEYYTMTVFMTSLKKLN | 50000
TTLVTGTQLFFLLSFRDTMFAFSFLLFSPFVLFLWYGFFSSGALFISLICFLV | 54700
VLLYFCSGYMFAILITVAYILLQFLVPLITDAHVLFFEWTFFEFLFRIWFLLW | 79500
AVDESSSEVKPAEPKADEGKPETASEENTAEASKPEAPKAEEANAEETAPAEG | 51300
FFFVCYILQTLGMIAYMIMIVYDYYQNYLWFRGVAVVQSSTFIGQWYVFFIWF | 57700
MRQARGLHCRCPFGYRASLVLCLYLDVLFEGGFLYFYFFVPFFHATTFFFFLL | 37700
ALNTFLDGLVFQLFPMVADLWIAAAYFFVVFDAYYSLMVISVTWFYIWMTIYM | 55200
REGGRRGRGRARSRRQGGKREERGRTRKGRKGGENRPKREGGQGGGERARRRE | 41300
MQDGEHEQRLNGRKLALEAENYIIISTRLQKPCIGVVQVLLLLIIMRTISASD | 79600

Sequence | transcriptional activation domain activity
SADIERRHHKKNHKGGANAGNAAGNNNNAGGNAGNATAAAANRRDVVEDLQSR | 13900
AAKDRRHLRSRSQATYLILLGIMLWGLLRWRKTNVFKLWHLLVRQGACWILIV | 60400
MTVTPVNGYGWSRANKIGWTVFYISLWGYSNCSYFFPLPLYFSYVFFFFPFYP | 42200
PDYLFSRLFVCAFISLFVSLSFLQLGNGLRDLQFRVFSIFWVSILPAIIMSQI | 52200
FTKVIKLVSHFVLYFINICFILITIFFGYFYNLIKFYILLTLYLVSLRTLLSL | 47700
MYYIVIYAFLYGIKYTHWIYFLSNNLVFWFLLLHFRHSHYGSLSYRYIIDHLL | 62500
KGHVKTGILSANDGVPPTPNLLDYDWNNLNITGYEWISSELRDDALLSAVTLQ | 131000
HLLVVAPLILAYLTVDDLSNLRLRLLGRCLRLLAISLAFLCACCCTSSSTPST | 58200
MYHITVFSLPLNLYCARCFALTLTILMGKSFLMGFINVFNRICTLLVTTLFLI | 70100
MLFIYEVFPSFSHSPIHSPFISFPSSLPSLSLPESLCICLWIVLFLTFNFYTL | 56900
MAGAVPVLMLILLLLSHLCTAFKFYSESGFALVRKILLTALPTFEPHHYQMDG | 71600
LARVLTDFPMIFVMCTVFCIILYFMSGFAMEASKFWIFYLFVYVTTFCITALY | 46200
GEEVSAPLPKPKGKGGRPRKHPRPEPVASEYEVDGEPTPKRARRAIKSKRGRR | 23500
LREVYLLSLFYRIKIRFLEAGFNRLKNLIKLDTRYYIVSFTYIVLELLKAKML | 63300
GCRNAYEIKTLRFGGVCMLHRCGGGQNCFKECCIDLMICLRFYIPFMKKFCPK | 15900
QREARKEHIKSLVAPGLPFLSIDTYKDLNDKWVLKGVFRGLLVLRGLAHHLRT | 63100
NSVPGSPETPTSSSLDGSRETGYLRVRVVSAKDLAARMRSRTATCSASAGSPL | 42100
MILLPSLWLLSLVVIFPVCYFYIQKSFPFPSSLFCIVCPITIYIINILSSHVL | 33900
MREGWVWISEYRVLCLYFFFFLFLFFSNSFFFSPIYLFLFFTLFLVCLLCFRP | 53400
MLHLPLFLLYFFFFSLLLYFSFFPSSFFFFLLSPPFPLLIFSLFLSFLLLFPP | 40200
KKGREDMGNERKGNDMEGREGEKRGRKGKREGGGKGGKGGEKQREGRTGERGR | 21800
TPVYIGPLDGGAGDAQHGRKGGESRFQITPRKTVRLGEDGKGRKVSVEQRIVC | 49400
VLGELSRFAGGPEETPIHIGTLYYLNVHTAPPYFWQRCQALLYRNTLLLSWIA | 52200
GKRNSGAGGASAKAKARGAGKKPAAAGGKAGKKNVRAAKSKGKAAGARTKPAA | 43900
RYPPKHILISQSLILILLCFHLSFVWNKEFAPFNIESRTLFICFLGYLPILLL | 36900
ALAVMFAEAVALSWWVSALKGQTLECLHFQWEVGQSVLKILLKRRFWGWVCVA | 46700
EFNDIERSVYEIVRKRFIARINSFAAAGQLEKSYTNIFVMLLRLRQLTGHILT | 48200

Sequence | transcriptional activation domain activity
IQAYLVNFLSSACLMNFWVTLTFLLGGEPYHYSTYVLLVGWMFIYLILLFGLI | 37700
SQVCLDSFGLLFAVVAYPCTSLLLLIFILASFLTFQAIFTLFPLFRLLAFFCL | 41700
MRGFFWQILLQTCLLPIVTCTLLPTPLMPFCALQHTPLSNLFLLLSWLYFLPY | 48400
ANGSSATTPEPDGKTAAGTAAVPKRKQTEKKANGPTKKQKTGSPKKGGRKGAS | 27700
AAPAASKAAPAAASPEKKEKAKPGKKEREAAKAAAAAAPPKASASSSSAPEQA | 18300
ILRCYLQYIFALTLVFFWLLYTLTCSISQFSRHLRSWTCWIFYSLYRRILFLG | 56200
GRQSKDGKEGKEGKEGSGERRREEKKEAGRERGGEEGGKEGRGRQRAGASGGE | 25500
MAKSDPHQPGRIRAFKPKVSTGCKTCKIRRVKCDEAKPACKRCSSTGRKCDGY | 16300
MAGVGYYDLKQLMMVFLLVWLLAICVGPWYQGCFSPSFLLFCFYQPYIFISFL | 52900
ESCDGSLWLCPFSQPVRPSLIKLVSRGIDRRRITSLLFMLWLVCWAVSLLFSK | 59900
DSHYILQGVDAAIQILKLCRVCLHPRAVLSYLPHSFYLYLCYAAVFLLKVVFV | 61700
LALFGMKMVEAIMTMIHMDFRYCDFLGILPLLIFLIPCHYFYTLLKIKALLTY | 60600
MRILGCVVNAHLKQMIHRNSLLIIPECPRMFWLGCQTRCVVLGEWIGLHANRF | 69300
MVEAQDSSLSSTLFYLSFLDIGATFYTFLLLFFFLEDLEGFLLFIVFWMLLLV | 44100
TISYLILAGSDYFEWCYLSIYQYSTLCNSSLLDVWRDIQYLWILIMFIWNILP | 52100
APAPIAAEPAPAPAVETPAPAPAPATEEKKEEAAAPAVEATPAPAAAPAAATT | 30500
MVLLSKIVWVICGVTLVSTDFDHAQRRLRGSLLTSLTLYLLIVMCSRWSLVES | 72400
EFFVLWVVQAIIGSRLEMYWAVLMICVLRCNQSYVSNACREVWLSWIIHGWVQ | 61500
KFLRHVLLKYFSFRLRSWMLNWAIGCVVRLFFFILHLLHPSWIFFLIYPYILN | 54400
LIGMDQDVLGRWSQVIGEKGEGSLFSLALGPHQSNWLVLIRQACLLLLRSVAA | 51200
PAAATPAVSIGLIYLIIMAFFSFSFFLPIHMKYIQPQGHPPLHFWQLIIWRWL | 52700
TSSPSAISSTSVNTLLVAGSEGTDAHVKTVGEQLKTRMGVKGGGKGTRWSGKM | 57300
MTEDEGKPRRKRARLACTACNARRVKCNVTESRPCHNCIAGNVLCETVPSRRG | 36100
MINFWLFIFLSSSLLFLPFFFLYIFFNYYYFFLFTQYIMVTWFFENYQFANAW | 56200
PSLPPSHPVPSLSLFCFFVFFFAFFFFFFMPIFYYNLLISHFPFCRCWRCLHM | 26200
